How the values were obtained:
[1] = molecular target: human CD33 E85A (human, UniProt P20138 18-364); experiment: alanine scan, flow cytometry, HEK293-T;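 further: antibody binding to each alanine-substituted CD33 mutant expressed transiently in HEK293-T, read as fluorescence minus background, mean of duplicates, relative to wild-type CD33 set as 100%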
Protocol: (§1) An alanine scan on human CD33 was performed to the determine the residues on CD33 that are involved in binding to the antibodies investigated. […] Briefly, a mutation library of CD33 was created by high-throughput, site-directed mutagenesis. Each residue was individually mutated to alanine, with alanine codons mutated to serine. The mutant library was arrayed in 384-well microplates and transiently transfected into HEK293-T. Following transfection, cells were incubated with the indicated antibodies (IgG or Fab) at concentrations pre-determined using an independent immunofluorescence titration curve on wild type CD33. […] Binding of each antibody to each mutant clone was determined in duplicates. For each point, background fluorescence was subtracted from the raw data, which were then normalized to antibody reactivity with wild type CD33.
(§2) Critical residues for antibody binding (outlined in dark grey) were residues whose mutations led to a binding of the test Abs of less than 20%. Additional secondary residues (outlined in light grey) were identified that led to a binding of the test Abs of between 20 and 40% as compared to the wild type CD33.

[2] = molecular target: human CD33 G88A (human, UniProt P20138 18-364); experiment: alanine scan, flow cytometry, HEK293-T;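 further: antibody binding to each alanine-substituted CD33 mutant expressed transiently in HEK293-T, read as fluorescence minus background, mean of duplicates, relative to wild-type CD33 set as 100%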
Sequence of human CD33 G88A (P20138 18-364 G88A limits assumed): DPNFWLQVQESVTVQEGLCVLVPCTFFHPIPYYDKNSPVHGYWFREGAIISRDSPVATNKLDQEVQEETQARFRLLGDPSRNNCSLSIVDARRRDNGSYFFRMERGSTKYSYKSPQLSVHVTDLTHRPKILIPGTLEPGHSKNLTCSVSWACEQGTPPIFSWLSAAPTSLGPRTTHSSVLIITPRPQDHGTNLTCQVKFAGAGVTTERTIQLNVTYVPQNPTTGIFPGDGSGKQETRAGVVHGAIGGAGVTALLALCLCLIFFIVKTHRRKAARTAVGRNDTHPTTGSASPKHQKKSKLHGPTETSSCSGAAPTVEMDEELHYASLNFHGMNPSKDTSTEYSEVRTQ
Protocol: as §1, §2

[3] = molecular target: human CD33 D79A (human, UniProt P20138 18-364); experiment: alanine scan, flow cytometry, HEK293-T;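 further: antibody binding to each alanine-substituted CD33 mutant expressed transiently in HEK293-T, read as fluorescence minus background, mean of duplicates, relative to wild-type CD33 set as 100%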
Sequence of human CD33 D79A (P20138 18-364 D79A limits assumed): as the sequence (P20138 18-364 G88A limits assumed) above, with D62A, A71G counted along it
Protocol: as §1, §2

[4] = molecular target: human CD33 V56A (human, UniProt P20138 18-364); experiment: alanine scan, flow cytometry, HEK293-T;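 further: antibody binding to each alanine-substituted CD33 mutant expressed transiently in HEK293-T, read as fluorescence minus background, mean of duplicates, relative to wild-type CD33 set as 100%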
Sequence of human CD33 V56A (P20138 18-364 V56A limits assumed): as the sequence (P20138 18-364 G88A limits assumed) above, with V39A, A71G counted along it
Protocol: as §1, §2

[5] = molecular target: human CD33 I66A (human, UniProt P20138 18-364); experiment: alanine scan, flow cytometry, HEK293-T
Sequence of human CD33 I66A (P20138 18-364 I66A limits assumed): as the sequence (P20138 18-364 G88A limits assumed) above, with I49A, A71G counted along it
Protocol: as §1, §2

[6] = molecular target: human CD33 F117A (human, UniProt P20138 18-364); experiment: alanine scan, flow cytometry, HEK293-T
Sequence of human CD33 F117A (P20138 18-364 F117A limits assumed): as the sequence (P20138 18-364 G88A limits assumed) above, with A71G, F100A counted along it
Protocol: as §1, §2

[7] = molecular target: human CD33 G114A (human, UniProt P20138 18-364); experiment: alanine scan, flow cytometry, HEK293-T
Sequence of human CD33 G114A (P20138 18-364 G114A limits assumed): as the sequence (P20138 18-364 G88A limits assumed) above, with A71G, G97A counted along it
Protocol: as §1, §2

[8] = molecular target: human CD33 T75A (human, UniProt P20138 18-364); experiment: alanine scan, flow cytometry, HEK293-T
Sequence of human CD33 T75A (P20138 18-364 T75A limits assumed): as the sequence (P20138 18-364 G88A limits assumed) above, with T58A, A71G counted along it
Protocol: as §1, §2

[9] = molecular target: human CD33 P96A (human, UniProt P20138 18-364); experiment: alanine scan, flow cytometry, HEK293-T
Sequence of human CD33 P96A (P20138 18-364 P96A limits assumed): as the sequence (P20138 18-364 G88A limits assumed) above, with A71G, P79A counted along it
Protocol: as §1, §2

[10] = molecular target: human CD33 K77A (human, UniProt P20138 18-364); experiment: alanine scan, flow cytometry, HEK293-T
Sequence of human CD33 K77A (P20138 18-364 K77A limits assumed): as the sequence (P20138 18-364 G88A limits assumed) above, with K60A, A71G counted along it
Protocol: as §1, §2

[11] = molecular target: human CD33 Q87A (human, UniProt P20138 18-364); experiment: alanine scan, flow cytometry, HEK293-T
Sequence of human CD33 Q87A (P20138 18-364 Q87A limits assumed): as the sequence (P20138 18-364 G88A limits assumed) above, with Q70A, A71G counted along it
Protocol: as §1, §2

[12] = molecular target: human CD33 D51A (human, UniProt P20138 18-364); experiment: alanine scan, flow cytometry, HEK293-T
Sequence of human CD33 D51A (P20138 18-364 D51A limits assumed): as the sequence (P20138 18-364 G88A limits assumed) above, with D34A, A71G counted along it
Protocol: as §1, §2

[13] = molecular target: human CD33 D95A (human, UniProt P20138 18-364); experiment: alanine scan, flow cytometry, HEK293-T
Sequence of human CD33 D95A (P20138 18-364 D95A limits assumed): as the sequence (P20138 18-364 G88A limits assumed) above, with A71G, D78A counted along it
Protocol: as §1, §2

[14] = molecular target: human CD33 L78A (human, UniProt P20138 18-364); experiment: alanine scan, flow cytometry, HEK293-T
Sequence of human CD33 L78A (P20138 18-364 L78A limits assumed): as the sequence (P20138 18-364 G88A limits assumed) above, with L61A, A71G counted along it
Protocol: as §1, §2

[15] = molecular target: human CD33 R109A (human, UniProt P20138 18-364); experiment: alanine scan, flow cytometry, HEK293-T
Sequence of human CD33 R109A (P20138 18-364 R109A limits assumed): as the sequence (P20138 18-364 G88A limits assumed) above, with A71G, R92A counted along it
Protocol: as §1, §2

[16] = molecular target: human CD33 V106A (human, UniProt P20138 18-364); experiment: alanine scan, flow cytometry, HEK293-T
Sequence of human CD33 V106A (P20138 18-364 V106A limits assumed): as the sequence (P20138 18-364 G88A limits assumed) above, with A71G, V89A counted along it
Protocol: as §1, §2

[17] = molecular target: human CD33 Y49P (human, UniProt P20138 18-364); experiment: flow cytometry, transfected cells
Sequence of human CD33 Y49P (P20138 18-364 Y49P limits assumed): as the sequence (P20138 18-364 G88A limits assumed) above, with Y32P, A71G counted along it

[18] = molecular target: human CD33 K52D (human, UniProt P20138 18-364); experiment: flow cytometry, transfected cells
Sequence of human CD33 K52D (P20138 18-364 K52D limits assumed): as the sequence (P20138 18-364 G88A limits assumed) above, with K35D, A71G counted along it

[19] = molecular target: human CD33 P48W (human, UniProt P20138 18-364); experiment: flow cytometry, transfected cells
Sequence of human CD33 P48W (P20138 18-364 P48W limits assumed): as the sequence (P20138 18-364 G88A limits assumed) above, with P31W, A71G counted along it

[20] = molecular target: human CD33 Y49D (human, UniProt P20138 18-364); experiment: flow cytometry, transfected cells
Sequence of human CD33 Y49D (P20138 18-364 Y49D limits assumed): as the sequence (P20138 18-364 G88A limits assumed) above, with Y32D, A71G counted along it

[21] = molecular target: T1, human CD33 R144A (human, UniProt P20138 18-364); experiment: alanine scan, flow cytometry, HEK293-T
T1 construct: alanine scan clone, transfected HEK293-T
T1 sequence (P20138 18-364 R144A limits assumed): as the sequence (P20138 18-364 G88A limits assumed) above, with A71G, R127A counted along it
Protocol: as §1, §2

[22] = molecular target: T2, human CD33 F177A (human, UniProt P20138 18-364); experiment: alanine scan, flow cytometry, HEK293-T
T2 construct: alanine scan clone, transfected HEK293-T
T2 sequence (P20138 18-364 F177A limits assumed): as the sequence (P20138 18-364 G88A limits assumed) above, with A71G, F160A counted along it
Protocol: as §1, §2

[23] = molecular target: T3, human CD33 P189A (human, UniProt P20138 18-364); experiment: alanine scan, flow cytometry, HEK293-T
T3 construct: alanine scan clone, transfected HEK293-T
T3 sequence (P20138 18-364 P189A limits assumed): as the sequence (P20138 18-364 G88A limits assumed) above, with A71G, P172A counted along it
Protocol: as §1, §2

[24] = molecular target: T4, human CD33 I176A (human, UniProt P20138 18-364); experiment: alanine scan, flow cytometry, HEK293-T
T4 construct: alanine scan clone, transfected HEK293-T
T4 sequence (P20138 18-364 I176A limits assumed): as the sequence (P20138 18-364 G88A limits assumed) above, with A71G, I159A counted along it
Protocol: as §1, §2

[25] = molecular target: T5, human CD33 A182S (human, UniProt P20138 18-364); experiment: alanine scan, flow cytometry, HEK293-T
T5 construct: alanine scan clone, transfected HEK293-T
T5 sequence (P20138 18-364 A182S limits assumed): as the sequence (P20138 18-364 G88A limits assumed) above, with A71G, A165S counted along it
Protocol: as §1, §2

[26] = molecular target: T6, human CD33 H137A (human, UniProt P20138 18-364); experiment: alanine scan, flow cytometry, HEK293-T
T6 construct: alanine scan clone, transfected HEK293-T
T6 sequence (P20138 18-364 H137A limits assumed): as the sequence (P20138 18-364 G88A limits assumed) above, with A71G, H120A counted along it
Protocol: as §1, §2

[27] = molecular target: T7, human CD33 G123A (human, UniProt P20138 18-364); experiment: alanine scan, flow cytometry, HEK293-T
T7 construct: alanine scan clone, transfected HEK293-T
T7 sequence (P20138 18-364 G123A limits assumed): as the sequence (P20138 18-364 G88A limits assumed) above, with A71G, G106A counted along it
Protocol: as §1, §2

[28] = molecular target: T8, human CD33 S166A (human, UniProt P20138 18-364); experiment: alanine scan, flow cytometry, HEK293-T
T8 construct: alanine scan clone, transfected HEK293-T
T8 sequence (P20138 18-364 S166A limits assumed): as the sequence (P20138 18-364 G88A limits assumed) above, with A71G, S149A counted along it
Protocol: as §1, §2

[29] = molecular target: T9, human CD33 G156A (human, UniProt P20138 18-364); experiment: alanine scan, flow cytometry, HEK293-T
T9 construct: alanine scan clone, transfected HEK293-T
T9 sequence (P20138 18-364 G156A limits assumed): as the sequence (P20138 18-364 G88A limits assumed) above, with A71G, G139A counted along it
Protocol: as §1, §2

[30] = molecular target: T10, human CD33 T185A (human, UniProt P20138 18-364); experiment: alanine scan, flow cytometry, HEK293-T
T10 construct: alanine scan clone, transfected HEK293-T
T10 sequence (P20138 18-364 T185A limits assumed): as the sequence (P20138 18-364 G88A limits assumed) above, with A71G, T168A counted along it
Protocol: as §1, §2

Sequence of human CD33 E85A (P20138 18-364 E85A limits assumed): as the sequence (P20138 18-364 G88A limits assumed) above, with E68A, A71G counted along it

B1: Refmab #5 (antibody, V domains shown)
VH: QVQLVQSGAEVKKPGASVKVSCKASGYTFTNYDINWVRQAPGQGLEWIGWIYPGDGSTKYNEKFKAKATLTADTSTSTAYMELRSLRSDDTAVYYCASGYEDAMDYWGQGTTVTVSS
VL: DIQMTQSPSSLSASVGDRVTINCKASQDINSYLSWFQQKPGKAPKTLIYRANRLVDGVPSRFSGSGSGQDYTLTISSLQPEDFATYYCLQYDEFPLTFGGGTKVEIK
notes: Full-length format is human IgG1 Fc silent (PG-LALA); also made as Fab; The alanine scan used IgG or Fab
[1]
  Mean % WT Binding: 158 % WT binding
[2]
  Mean % WT Binding: 118 % WT binding
[3]
  Mean % WT Binding: 91.3 % WT binding
[4]
  Mean % WT Binding: 93 % WT binding
[5]
  Mean % WT Binding: 105 % WT binding
[6]
  Mean % WT Binding: 113 % WT binding
[7]
  Mean % WT Binding: 79 % WT binding
[8]
  Mean % WT Binding: 120 % WT binding
[9]
  Mean % WT Binding: 114 % WT binding
[10]
  Mean % WT Binding: 124 % WT binding
[11]
  Mean % WT Binding: 137 % WT binding
[12]
  Mean % WT Binding: 105 % WT binding
[13]
  Mean % WT Binding: 122 % WT binding
[14]
  Mean % WT Binding: 99.3 % WT binding
[15]
  Mean % WT Binding: 103 % WT binding
[16]
  Mean % WT Binding: 106 % WT binding

B2: Refmab #5 (antibody, human IgG1, V domains shown)
VH: QVQLVQSGAEVKKPGASVKVSCKASGYTFTNYDINWVRQAPGQGLEWIGWIYPGDGSTKYNEKFKAKATLTADTSTSTAYMELRSLRSDDTAVYYCASGYEDAMDYWGQGTTVTVSS
VL: DIQMTQSPSSLSASVGDRVTINCKASQDINSYLSWFQQKPGKAPKTLIYRANRLVDGVPSRFSGSGSGQDYTLTISSLQPEDFATYYCLQYDEFPLTFGGGTKVEIK
[17]
  binding result: no binding (tested: below 20%)
[18]
  binding result: no binding (tested: below 20%)
[19]
  binding result: no binding (tested: below 20%)
[20]
  binding result: no binding (tested: below 20%)

B3: Refmab #5 (antibody, V domains shown)
VH: QVQLVQSGAEVKKPGASVKVSCKASGYTFTNYDINWVRQAPGQGLEWIGWIYPGDGSTKYNEKFKAKATLTADTSTSTAYMELRSLRSDDTAVYYCASGYEDAMDYWGQGTTVTVSS
VL: DIQMTQSPSSLSASVGDRVTINCKASQDINSYLSWFQQKPGKAPKTLIYRANRLVDGVPSRFSGSGSGQDYTLTISSLQPEDFATYYCLQYDEFPLTFGGGTKVEIK
notes: The alanine scan used IgG or Fab
[21]
  Mean % WT Binding: 71 % WT binding
[22]
  Mean % WT Binding: 57.3 % WT binding
[23]
  Mean % WT Binding: 115 % WT binding
[24]
  Mean % WT Binding: 97 % WT binding
[25]
  Mean % WT Binding: 103 % WT binding
[26]
  Mean % WT Binding: 120 % WT binding
[27]
  Mean % WT Binding: 67.5 % WT binding
[28]
  Mean % WT Binding: 114 % WT binding
[29]
  Mean % WT Binding: 92.3 % WT binding
[30]
  Mean % WT Binding: 94 % WT binding

B4: Refmab #4 (antibody, human IgG1, V domains shown)
VH: QVQLVQSGAEVKKPGESVKVSCKASGYTFTNYGMNWVKQAPGQGLEWMGWINTYTGEPTYADKFQGRVTMTTDTSTSTAYMEIRNLGGDDTAVYYCARWSWSDGYYVYFDYWGQGTSVTVSS
VL: DIVMTQSPDSLTVSLGERTTINCKSSQSVLDSSTNKNSLAWYQQKPGQPPKLLLSWASTRESGIPDRFSGSGSGTDFTLTIDSPQPEDSATYYCQQSAHFPITFGQGTRLEIK
[17]
  binding result: no binding (tested: below 20%)
[18]
  binding result: no binding (tested: below 20%)
[19]
  binding result: no binding (tested: below 20%)
[20]
  binding result: no binding (tested: below 20%)
